Results on 1 substance are retold here after article PMC12429969.

Test [1] deals with cell surface IgG (sIgG) of the sIgG+ B-cell line SU-DHL-4 (human (endogenous in SU-DHL-4)).
Test [2] has the same target. The source holds these as a separate data set.

Take “IgAimG (SpA toxin 2): diphtheria toxin without its receptor binding domain, GGGS linker, SpA ZZ domain”: the viability of the sIgG+ B-cell line SU-DHL-4 after 3 days with the toxin (luminescent cell viability assay); toxic from 0.0001 μg/ml (% of cells killed) in test [1] is 99. Besides, the viability of SU-DHL-4 after 3 days with 10 to 100 μg/ml IgAimG in the presence of human serum (luminescent cell viability assay) (% of cells killed) in test [2] was more than 99.
